Reference: article PMC5440646 (2017)
Where no end group is shown, it is not given here. [ ]: non-standard residue; d: D form. The star is where a group is joined. Biotin = O=C1N[C@H]2[C@H](CS[C@H]2CCCCC(=O)*)N1; pY = N[C@@H](Cc1ccc(OP(=O)(O)O)cc1)C(=O)O

How the values were obtained:
Test in all cases: SPR
[1] = target: T1, SLP-76 SH2 domain, His-tagged (UniProt Q13094 422-530)
T1 chain: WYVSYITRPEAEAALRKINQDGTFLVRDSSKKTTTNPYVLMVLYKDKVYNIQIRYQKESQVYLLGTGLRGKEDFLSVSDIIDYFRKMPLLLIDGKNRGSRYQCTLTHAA

[2] = target: T2, GADS SH2 domain, His-tagged (UniProt O75791 58-149)
T2 chain: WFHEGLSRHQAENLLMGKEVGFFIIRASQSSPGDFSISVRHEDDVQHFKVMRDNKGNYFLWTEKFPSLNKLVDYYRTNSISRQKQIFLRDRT

CD28 pYMN peptide = target: T3, CD28 pYMN peptide (Homo sapiens, UniProt P10747)
T3 chain: LLHSD[pY]MNMTPRR

CD6 long pY629 peptide = target: T4, CD6 long pY629 peptide (Homo sapiens, UniProt P30203, pY629)
T4 chain: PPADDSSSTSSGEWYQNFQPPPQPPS

Q: For Biotin-STSSGEW[pY]QNFQPPPQPPSEEQFGCPGSPSPQPDSTDNDD[pY]DDISAA [long CD6 peptide phosphorylated at Y629 and Y662], which Kd [1] is on record?
A: Its Kd is 1000 nM.

Q: What about the Kd [2] of the same binder?
A: The Kd was 1000 nM.

Q: For Biotin-STSSGEWYQNFQPPPQPPSEEQFGCPGSPSPQPDSTDNDD[pY]DDISAA [long CD6 peptide phosphorylated at Y662], which Kd [1] is on record?
A: Its Kd is 1000 nM.

B1: GADS SH2 (protein)
chain: FPKWFHEGLSRHQAENLLMGKEVGFFIIRASQSSPGDFSISVRHEDDVQHFKVMRDNKGNYFLWTEKFPSLNKLVDYYRTNSISRQKQIFLRDRTRED
Q: Which results are given for B1?
A: Kd (CD28 pYMN peptide): ~2500 nM; Kd (CD6 long pY629 peptide): ~400 nM

Q: For Biotin-STSSGEW[pY]QNFQPPPQPPSEEQFGCPGSPSPQPDSTDNDDYDDISAA [long CD6 peptide phosphorylated at Y629], which Kd [2] is on record?
A: The Kd was 1000 nM.
